Residue numbers refer to the chain shown, from its start. Like-named read-outs stand apart in the source and are kept apart here. One block for each binder: values may come before it.
How the values were obtained:
Experiment in all cases: flow cytometry, 293 cells expressing human IgE CH2-4
[1] = target: T1, CH2-4 constant domains of human IgE linked to a transmembrane protein, on 293 cells (human, UniProt P01854-1 104-428)
T1 construct: domain: CH2-4 constant domains; also called human IgE-expressing 293 cells
Description: (§1) First, 25 μg of DNA was added to Opti-MEM Reduced Serum Medium (Gibco) mixed with 75 μL of 40 kDa Polyethylenimine (PEI) for a final concentration of 1 μg DNA and 2.5 μg PEI per mL of culture volume. The plasmid DNA was allowed to pre-complex with PEI for 15 minutes before transferring the mixture to 25 mL of 293 cells in a shake flask at a density of 2×10⁶ cells/mL. […] Next, 50 μL of cells were transferred to wells of a round-bottom 96-well assay plate for a total of 50,000 293 cells per well. In a separate 96-well plate, monomeric VHH-hIgG1-Fc fusion proteins were titrated 1:5 in a 8-point dilution series starting at 1 μM in FACS Buffer with the 8th point containing no antibody. 50 μL from each antibody dilution was added to wells containing 50 μL of FACS Buffer with transfected 293 cells which produced a 2-fold dilution of the antibody concentrations from the dilution series resulting in a 500 nM final, starting concentration of the test article titration. The test articles and 293 cells were incubated together at 4° C. for 30 minutes. Next, the 96-well plates were centrifuged at 400×g for 5 minutes and the FACS buffer containing unbound antibody was decanted. Cells were washed 1× with 150 μL 4° C. FACS Buffer. […] The cells were incubated with the fluorophore conjugated detection antibody at 4° C. for 20 minutes. 293 cells were then centrifuged and washed once as described above. Cell pellets were resuspended in 30 μL FACS Buffer and analyzed on an iQue Screener Plus flow cytometer (Sartorius, IntelliCyt) with a 1 second sip time and 1 second void time. Mean fluorescent intensity was calculated using iQue onboard software gating on GFP+ or citrine+ cells.

[2] = target: T1, CH2-4 constant domains of human IgE …; remark: listed apart in the source
Description: as §1

[3] = target: T1, CH2-4 constant domains of human IgE …; remark: listed apart in the source
Description: as §1

[4] = target: T1, CH2-4 constant domains of human IgE …; remark: listed apart in the source
Description: as §1

[5] = target: T1, CH2-4 constant domains of human IgE …; remark: listed apart in the source
Description: as §1

[6] = target: T1, CH2-4 constant domains of human IgE …; remark: listed apart in the source
Description: as §1

T1 sequence (P01854 other isoform, or with tags, fused parts or gaps): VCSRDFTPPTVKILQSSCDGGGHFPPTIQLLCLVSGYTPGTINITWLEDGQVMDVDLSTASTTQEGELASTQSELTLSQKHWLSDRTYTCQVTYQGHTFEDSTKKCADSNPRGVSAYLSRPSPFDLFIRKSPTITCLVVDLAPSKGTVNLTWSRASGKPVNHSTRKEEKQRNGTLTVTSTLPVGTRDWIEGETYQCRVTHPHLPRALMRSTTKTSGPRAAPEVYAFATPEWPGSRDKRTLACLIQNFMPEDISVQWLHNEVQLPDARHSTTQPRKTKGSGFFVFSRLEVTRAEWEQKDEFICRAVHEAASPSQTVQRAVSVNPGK

Bmax [1]: 605000 MFI
Kd [1]: 2.31 nM
B1: hzB10v29-NNT (Fc fusion)
VHH-Fc: EVQLLESGGGEVQPGGSLRLSCVASGLTFSSYNMGWLRQAPGKEREFVGLSGSSSTSTYYAESVKGRFTISRDNSKNTVYLQMQSLRAEDTAVYYCAARRLLSTYWSDRSWDFWGQGTQVTVEPGGPSVFLFPPKPKDTLMISRTPEVTCVVVDVSHEDPEVKFNWYVDGVEVHNAKTKPREEQYNSTYRVVSVLTVLHQDWLNGKEYKCKVSNKALPAPIEKTISKAKGQPREPQVYTLPPSRDELTKNQVNLTCLVKGFYPSDIAVEWESNGQPENNYKTTPPVLDSDGSFFLNSTLTVDKSRWQQGNVFSCSVMHEALHNHYTQKSLSLSPGK
notes: monomeric

Bmax [1]: 706000 MFI
Kd [1]: 1.33 nM
B2: hzB10v32-NNT (Fc fusion)
VHH-Fc: B1 VHH-Fc with L37V, Q84N
notes: monomeric

Bmax [1]: 617000 MFI
Kd [1]: 1.94 nM
B3: hzB10v33-NNT (Fc fusion)
VHH-Fc: B1 VHH-Fc with G49S, Q84N
notes: monomeric

Bmax [2]: 1.38e+06 MFI
Kd [2]: 2.62 nM
B4: hzB10v40 monomeric VHH-hIgG1-Fc fusion (Fc NNT) (Fc fusion)
chain: B1 VHH-Fc with S75A, Q84T, Q119L
notes: Humanized variants were tested as monomeric fusions with the non-dimerizing Fc NNT

Bmax [1]: 375000 MFI
Kd [1]: 0.55 nM
B5: hzB10v34-NNT (Fc fusion)
VHH-Fc: B1 VHH-Fc with L37V, G49S, Q84N
notes: monomeric

Bmax [1]: 575000 MFI
Kd [1]: 0.978 nM
B6: hzB10v31-NNT (Fc fusion)
VHH-Fc: B1 VHH-Fc with Q84N, S85T
notes: monomeric

Bmax [3]: 2.02e+06 MFI
Kd [3]: 0.98 nM
B7: hzB10v38-NNT (Fc fusion)
VHH-Fc: B1 VHH-Fc with Q84T, A88P, Q119L
notes: monomeric

Bmax [2]: 1.45e+06 MFI
Kd [2]: 2.27 nM
B8: hzB10v42-NNT (Fc fusion)
VHH-Fc: B1 VHH-Fc with N74S, Q84T, Q119L
notes: monomeric

Bmax [2]: 1.33e+06 MFI
Kd [2]: 2.26 nM
B9: hzB10v41-NNT (Fc fusion)
VHH-Fc: B1 VHH-Fc with N74Q, Q84T, Q119L
notes: monomeric

Bmax [3]: 1.9e+06 MFI
Kd [3]: 1.51 nM
B10: hzB10v37-NNT (Fc fusion)
VHH-Fc: B1 VHH-Fc with Q84T, R87K, Q119L
notes: monomeric

Kd [3]: 1.69 nM
Bmax [1]: 725000 MFI
Kd [1]: 1.63 nM
B11: hzB10v30-NNT (Fc fusion)
VHH-Fc: B1 VHH-Fc with Q84T
notes: monomeric

Kd [3]: 1.37 nM
B12: hzB10v39-NNT (Fc fusion)
VHH-Fc: B1 VHH-Fc with Q84T, Q119L
notes: monomeric

Bmax [2]: 1.42e+06 MFI
Kd [2]: 2.18 nM
B13: hzB10v43-NNT (Fc fusion)
VHH-Fc: B1 VHH-Fc with N74T, Q84T, Q119L
notes: monomeric

Bmax [2]: 1.38e+06 MFI
Kd [2]: 2.37 nM
B14: hzB10v44-NNT (Fc fusion)
VHH-Fc: B1 VHH-Fc with S75T, Q84T, Q119L
notes: monomeric

Bmax [4]: 2.75e+06 MFI
Kd [4]: 2.74 nM
B15: hzB10v8-NNT (Fc fusion)
VHH-Fc: EVQLVQSGGELVQAGGSLRLSCVASGLTFSSYNMGWLRQAPGKEREFVGISGSSSTSTYYADSVKGRFTISRDNSKNTVYLQMNSLKPEDTAVYYCAARRMLSTYWSDRSWDFWGQGTQVTVKPGGPSVFLFPPKPKDTLMISRTPEVTCVVVDVSHEDPEVKFNWYVDGVEVHNAKTKPREEQYNSTYRVVSVLTVLHQDWLNGKEYKCKVSNKALPAPIEKTISKAKGQPREPQVYTLPPSRDELTKNQVNLTCLVKGFYPSDIAVEWESNGQPENNYKTTPPVLDSDGSFFLNSTLTVDKSRWQQGNVFSCSVMHEALHNHYTQKSLSLSPGK
notes: monomeric

Bmax [5]: 2.08e+06 MFI
Kd [5]: 2.39 nM
B16: hzB10v22-NNT (Fc fusion)
VHH-Fc: B1 VHH-Fc with E62D, Q84N, A88P
notes: monomeric

Kd [5]: 1.82 nM
Bmax [2]: 1.17e+06 MFI
Kd [2]: 1.3 nM
Bmax [3]: 2.04e+06 MFI
Kd [3]: 0.872 nM
Bmax [6]: 1.36e+06 MFI
Kd [6]: 1.82 nM
Bmax [1]: 866000 MFI
Kd [1]: 0.461 nM
B17: B10-NNT (Fc fusion)
VHH-Fc: B15 VHH-Fc with I50M
notes: monomeric; also called parental B10 monomeric VHH-hIgG1-Fc fusion (Fc NNT)

Bmax [4]: 2.83e+06 MFI
Kd [4]: 2.82 nM
B18: hzB10v9-NNT (Fc fusion)
VHH-Fc: B15 VHH-Fc with I50V
notes: monomeric

Bmax [4]: 3.41e+06 MFI
Kd [4]: 15.6 nM
B19: hzB10v11-NNT (Fc fusion)
VHH-Fc: B15 VHH-Fc with I50M, M101I
notes: monomeric

Bmax [5]: 1.92e+06 MFI
Kd [5]: 2.52 nM
B20: hzB10v24-NNT (Fc fusion)
VHH-Fc: B1 VHH-Fc with L37V, E62D, Q84N, R87K, A88P
notes: monomeric

Kd [5]: 1.43 nM
B21: hzB10v26-NNT (Fc fusion)
VHH-Fc: B15 VHH-Fc with V5L, Q6E, E10G, L11E, A14P, I50M
notes: monomeric

Bmax [4]: 2.76e+06 MFI
Kd [4]: 1.19 nM
B22: hzB10v10-NNT (Fc fusion)
VHH-Fc: B15 VHH-Fc with I50M, M101L, V122A
notes: monomeric

Bmax [5]: 2.01e+06 MFI
Kd [5]: 2.8 nM
B23: hzB10v25-NNT (Fc fusion)
VHH-Fc: B1 VHH-Fc with G49S, E62D, Q84N, R87K, A88P
notes: monomeric

Bmax [4]: 2.72e+06 MFI
Kd [4]: 2.37 nM
B24: hzB10v12-NNT (Fc fusion)
VHH-Fc: B15 VHH-Fc with I50M, M101V
notes: monomeric

Bmax [5]: 1.96e+06 MFI
Kd [5]: 1.05 nM
B25: hzB10v23-NNT (Fc fusion)
VHH-Fc: B1 VHH-Fc with E62D, Q84N, R87K
notes: monomeric

Bmax [5]: 1.72e+06 MFI
Kd [5]: 6.4 nM
B26: hzB10v21-NNT (Fc fusion)
VHH-Fc: B1 VHH-Fc with E62D, Q84S, R87K, A88P
notes: monomeric

Bmax [4]: 2.82e+06 MFI
Kd [4]: 3.49 nM
B27: hzB10v13-NNT (Fc fusion)
VHH-Fc: B15 VHH-Fc with I50M, D62E, S75A, V122A
notes: monomeric

Bmax [4]: 2.25e+06 MFI
Kd [4]: 0.893 nM
Kd [6]: 0.893 nM
B28: Anti-IgE sdAb B10 (parental B10 VHH, dimeric VHH-hIgG1-Fc xELL fusion) (Fc fusion)
chain: EVQLVQSGGELVQAGGSLRLSCVASGLTFSSYNMGWLRQAPGKEREFVGMSGSSSTSTYYADSVKGRFTISRDNSKNTVYLQMNSLKPEDTAVYYCAARRMLSTYWSDRSWDFWGQGTQVTVKPDKTHTCPPCPAPGGPSVFLFPPKPKDTLMISRTPEVTCVVVDVSHEDPEVKFNWYVDGVEVHNAKTKPREEQYNSTYRVVSVLTVLHQDWLNGKEYKCKVSNKALPAPIEKTISKAKGQPREPQVYTLPPSRDELTKNQVSLTCLVKGFYPSDIAVEWESNGQPENNYKTTPPVLDSDGSFFLYSKLTVDKSRWQQGNVFSCSVMHEALHNHYTQKSLSLSPGK
